In publication PMC3334467 (Immunity, 2012):

Biological target: T1, MBP-AIM2 HIN domain (human, UniProt O14862 144-343)
T1 sequence (looked up): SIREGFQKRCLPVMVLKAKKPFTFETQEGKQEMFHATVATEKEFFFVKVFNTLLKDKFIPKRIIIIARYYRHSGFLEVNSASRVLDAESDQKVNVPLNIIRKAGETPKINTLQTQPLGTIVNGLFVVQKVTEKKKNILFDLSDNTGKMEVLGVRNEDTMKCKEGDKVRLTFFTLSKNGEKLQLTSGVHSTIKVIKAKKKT
Experiment: fluorescence polarisation

- IC50: 11 µM
B1: AIM2 PYD domain, wild type (residues 1–107), as used in the FP inhibition assay (domain or fragment, human, UniProt O14862 1-107, looked up)
chain: MESKYKEILLLTGLDNITDEELDRFKFFLSDEFNIATGKLHTANRIQVATLMIQNAGAVSAVMKTIRIFQKLNYMLLAKRLQEEKEKVDKQYKSVTKPKPLSQAEMS
